Laboratory results taken from patent US5780221A, “Identification of enantiomeric ligands” (Whitehead Institute for Biomedical Research, priority 1996, dated 1998).
Square brackets hold non-standard residues; d marks the D form. Ends that are not written are not given here.

Key:
(L)-SH3 = biological target: T1, (L)-SH3 (Gallus gallus, UniProt P00523); assay: Retention of bacterially expressed (L)-SH3 on peptide affinity column; type: binding; conditions: residues 81-140 of chicken c-Src
T1 construct: E. coli BL21(DE3) pLysS, pMMHb TrpLE-His9 fusion, cleaved with CNBr
Method: The L- and D-enantiomers of the chicken c-SRC domain were prepared by bacterial expression and chemical synthesis, respectively. The biotinylated, synthetic, 60-amino acid D-SH3 domain was refolded and purified by affinity chromatography, with a D-amino acid version of a known peptide ligand for the SH3 domain (Yu, H., et al., Cell, 76:933 (1994)).
The all D amino acid SH3 domain, sequence […] S-COOH-terminus (SEQ ID No: 1), residues 81-140 of chicken c-SRC, was synthesized on HMP resin (ABI/Perkin Elmer) with an ABI 431A peptide synthesizer and ABI fastmoc cycles (Fmoc chemistry with HBTU activation and capping with acetic anhydride). Protected D-amino acids were obtained from Bachem California., Bachem Bioscience, Advanced Chemtech, and Novabiochem. For D-Ile and D-Thr, the side chain enantiomers were used, in which the chirality of the side chain is also inverted relative to naturally occurring L-Thr and L-Ile. After completion of the synthesis, the NH2 -terminus of the peptide was modified with NHS-LC-biotin II (Pierce). After cleavage, the peptide was lyophilized, dissolved in 6 M guanidine HCl, pH 6.0, and dialyzed against 100 mM NaHPO4 and 100 mM NaCl, pH 6.0, with the use of dialysis tubing with a molecular cutoff of 3,500 daltons (D) (Spectra/Por). […]

[1] = biological target: T2, lectin concanavalin A (Con A) (Canavalia ensiformis, UniProt P02866); assay: Con A screen of the phage library; type: binding; conditions: after 3 rounds
T2 construct: mature circularly permuted chain
Method: The library was made by ligation of a random PCR product into Sfi I-cut Fuse 5 vector. After ligation the reaction mixture was extracted with phenol and chloroform, ethanol-precipitated and taken up in 10 mM Tris/1 m mM EDTA (pH 8.0). The ligation product was subsequently transferred into electrocompetent MC1061 cells (Biorad) using a Bio-Rad E. coli pulser and 0.1 cm cuvettes. After non-restrictive growth for 1 hr aliquots of transformed cells were plated on tetracycline-containing plates to determine the efficiency of transformation, yielding an initial library of 3.6×108 transformants. The transformation mixture was subsequently diluted to a volume of 400 ml LB and 20 μg/ml tetracycline, and grown for an additional 14 hrs. A phage stock was prepared by two successive polyethylene glycol (PEG) precipitations of the culture supernatant as described. The phage stock was finally resuspended in tris buffered saline/NaN3 and titered by infection of K91-kan cells (A21), yielding a total of 2.8×10^11 transforming units. The randomness of the inserts was confirmed by sequencing of individual clones. 4×10^10 transforming units were subsequently used to infect K91-kan cells to generate an amplified library. After 18 hrs phage were purified by three repetitive PEG precipitations yielding 10 ml of the amplified phage library (1.2-10^12 transforming units/ml) in TBS/NaN3. […]

(D)-Src SH3 domain [2] = biological target: T3, (D)-Src SH3 domain (Gallus gallus, UniProt P00523); assay: Screening (selection rounds) of the phage library with the (D)-SH3 domain; type: binding, chicken; conditions: for Number of Isolates, low stringency: 4 rounds, 16 hrs phage incubation, washes 3', 5', 10' in rounds 2-4; for isolates after four rounds of selection: 29 clones sequenced after four rounds
Description: The all D amino acid SH3 domain, sequence […] S-COOH-terminus (SEQ ID No: 1), residues 81-140 of chicken c-SRC, was synthesized on HMP resin (ABI/Perkin Elmer) with an ABI 431A peptide synthesizer and ABI fastmoc cycles (Fmoc chemistry with HBTU activation and capping with acetic anhydride). Protected D-amino acids were obtained from Bachem California., Bachem Bioscience, Advanced Chemtech, and Novabiochem. For D-Ile and D-Thr, the side chain enantiomers were used, in which the chirality of the side chain is also inverted relative to naturally occurring L-Thr and L-Ile. After completion of the synthesis, the NH2 -terminus of the peptide was modified with NHS-LC-biotin II (Pierce). After cleavage, the peptide was lyophilized, dissolved in 6 M guanidine HCl, pH 6.0, and dialyzed against 100 mM NaHPO4 and 100 mM NaCl, pH 6.0, with the use of dialysis tubing with a molecular cutoff of 3,500 daltons (D) (Spectra/Por). After dialysis the material was spun briefly to remove insoluble debris, and the supernatant was subsequently dialyzed against 5% acetic acid and lyophilized. The peptide was dissolved at a concentration of 3.3 mg/ml in Tris-buffered saline (50 mM Tris, pH 7.5, and 150 mM NaCl) containing 1 mM biotin. The full biotinylated 60 amino acid (D)-SH3 domain length product was refolded and purified by affinity chromatography on an all-(D) version of a known substrate for the Src SH3 domain (D)-[…] (SEQ ID NO:2), Yu, H., et al., Cell, 76:933 (1994)), that was biotinylated and immobilized on a streptavidin-agarose column (Pierce). This peptide is a derivative of an all (L)-peptide shown to bind to the all (L)-SH3 domain (Yu, H., et al., Cell,76:933-945 (1994)), with an NH2 -terminal YGG added to facilitate concentration determination (H. Edelhoch, Biochemistry, 6:1948 (1967)). The L-peptide with the same NH2 -terminal YGG served as a control ligand in the experiments.
Single wells of a flatbottom 96 well high binding E.I.A./R.I.A. plate (Costar) were coated overnight with 10 μg streptavidin (Pierce) in 100 μl 100 mM NaHCO3 at 4° C. After a single wash with water, wells were incubated with 100 μl (10.7 μg) of biotinylated (D)-SH3 for 1 hr. at 20° C., blocked for 2 hrs with 30 mg/ml dialyzed bovine serum albumin (BSA) in 100 mM NaHCO3, and again incubated with 100 μl ([…]) of biotinylated (D)-SH3 for 1 hr. Unliganded streptavidin was blocked for 30 minutes by the addition of 8 μl 5 mM biotin in tris-buffered saline (TBS). Wells were subsequently washed 5 times with phosphate buffered saline (PBS) and 0.1% Tween-20, and incubated overnight with 50 μl of the phage stock in TBS/NaN3 and 50 μl of TBS, 0.1% Tween-20, 1 mg/ml BSA and 0.05% NaN3. Wells were subsequently washed by six additions of 200 μl of TBS, 0.1% Tween-20 and 1 mg/ml BSA with increasing incubation times in the later rounds of the selection procedure. (D)-SH3 bound phage particles were subsequently eluted by the addition of 100 μl D-SH3 ligand peptide (715 μM), sequence D-[…]-amide (SEQ ID No: 2), for 15 minutes at 4° C., at a final concentration of 700 to 1000 μM peptide. Acid elution of phages in this screen gives no detectable preferential binding to D-SH3 coated wells after four rounds of selection. The eluate was subsequently used to infect K91-kan cells. Briefly 100 μl eluate was mixed with 100 μl K91 Terrific Broth cells (prepared as described) an incubated for 20 minutes at room temperature. The mixture was subsequently transferred into an Erlenmeyer flask containing 20 ml LB/0.2 μg/ml tetracycline. After 1 hr incubation while shaking at 37° C., tetracycline was added to a final concentration of 20 μg/ml, appropriate dilutions were plated on tetracycline-containing plates ([…]) to determine the titer of the eluate and the culture was incubated at 37° C. for 12-16 hrs. Phage were isolated from the supernatant by two PEG precipitations and the resulting phage stock was used for titering to determine the yield, and for the subsequent round of selection. […]

(D)-Src SH3 domain [3] = biological target: T3, (D)-Src SH3 domain; assay: as above; type: binding, chicken; conditions: for Number of Isolates, high stringency: 4 rounds, 2 fold less (D)-Src SH3, 1 hr phage incubation, washes 10' in rounds 2-4
L-SH3 domain [4] = biological target: T4, L-SH3 domain (Gallus gallus, UniProt P00523); assay: Screening of the phage library with the L-SH3 domain; type: binding, chicken
T4 construct: Residues 81 to 140 of chicken c-SRC were cloned; modified TrpLE leader (Met to Leu, Cys to Ala) (N, cleaved yes); His9 within the C-terminal region of the TrpLE leader (N, cleaved yes); made in house; host or cells: Escherichia coli BL21(DE3) pLysS, plasmid pMMHb-SRC SH3
Method: Phage display with the L-SH3 domain was also assessed. When the (L)-SH3 domain is used to screen a phage library (A12) for interacting sequences the poly-proline sequences that have been observed by others Rickles, R. J., et al., EMBO J., 13:5598 (1994); Sparks, A. B., J. Biol. Chem., 39:23853 (1994); Cheadle, C., et al., Ibid, 39:24034 (1994) are isolated.
The sequences of these peptides have features consistent with those described for class I and class II ligands of the SH3 domain ((Yu, H., et al., Cell, 76:933 (1994); Rickles, R. J. et al., EMBO J., 13:5598 (1994; Sparks, A. B., et al., J. Biol. Chem., 269:23853 (1994); Cheadle, C., et al., ibid., p. 24034)).

L-SH3 domain [5] = biological target: T4, L-SH3 domain; assay: ELISA and NMR binding check of D-amino acid version of background sequence; parameters: species or system chicken; conditions: as judged by ELISA and NMR studies
[6] = system: synthetic D-vasopressin (DVP); assay: Affinity chromatography on D-vasopressin (DVP) resin, in vitro selection of ssDNAs; type: binding; conditions: for binding to DVP: affinity chromatography, positive ssDNA
Description: In the first step toward generating an antagonist of the peptide hormone L-vasopressin, an in vitro selection was used to isolate single-stranded DNAs (ssDNAs) that bind synthetic D-vasopressin (DVP). A starting pool of 10^16 different 96-mers was synthesized on a DNA synthesizer. Each pool molecule contained a central region with 60 random-sequence positions that was flanked by two 18-nt defined regions. Molecules within this starting pool that bind DVP were enriched by affinity chromatography. The affinity resin was prepared by coupling biotinylated DVP to streptavidin agarose. The ssDNA pool was radiolabeled, denatured, renatured in a physiological buffer and passed over this resin. […] Eluted pool was amplified by PCR using a negative-strand "primer-terminator", that is, an oligonucleotide bearing a central segment of non-nucleotide material that blocks further extension of the positive strand (Williams, K. P. and Bartel, D. P., Nucleic Acids Res., 23:4220-4221 (1995)). Such PCR results in a substantial size difference between the two product strands, facilitating gel-purification of the positivestrand ssDNA pool. This combination of affinity chromatography and PCR constituted one cycle of selection amplification.
After thirteen iterations of the selectionamplification cycle the pool was cloned. […] Positive ssDNA of each sequence binds DVP and both have potential to form very similar secondary structures.

(D)-YGGRELPPLPRF ([dY]GG[dR][dE][dL][dP][dP][dL][dP][dR][dF]; also: biotinylated, site not given here) [all-(D) version of a known substrate for the Src SH3 domain]
retention of bacterially expressed (L)-SH3 on peptide column ((L)-SH3): not on the (D)-enantiomer

AS M W M Y P Y P W G V SA (ASMWMYPYPWGVSA)
number in parentheses after sequence, Con A screen [1]: 9

AS W R Y N Y A F M R Y SA (ASWRYNYAFMRYSA)
number in parentheses after sequence, Con A screen [1]: 1

CAYGFKLGLIKC [clone has alanine to arginine substitution directly amino terminal to the insert]
Number of Isolates, low stringency ((D)-Src SH3 domain [2]): 1

CKRFVWRGQALC
Number of Isolates, low stringency ((D)-Src SH3 domain [2]): 10
isolates after four rounds of selection ((D)-Src SH3 domain [2]): 10 isolates
Number of Isolates, high stringency ((D)-Src SH3 domain [3]): 14

CLARSRLPAIPS
isolates after four rounds of selection with the L-SH3 domain (L-SH3 domain [4]): nine

CLMGLRLGLLPC
Number of Isolates, low stringency ((D)-Src SH3 domain [2]): 4
sequences revealed after fifth round of selection ((D)-Src SH3 domain [3]; fifth round with neutravidin as a matrix): only sequences of the fdSRC-2-type

CLSGLRLGLVPC
Number of Isolates, low stringency ((D)-Src SH3 domain [2]): 2

CSRASWRGLLFC
Number of Isolates, high stringency ((D)-Src SH3 domain [3]): 1

CWYLGYWPGQEC
Number of Isolates, low stringency ((D)-Src SH3 domain [2]): 12
isolates after four rounds of selection ((D)-Src SH3 domain [2]): 12 isolates

D-amino acid version of this sequence: D-amino acid version of CKRFVWRGQALC (SEQ ID No: 13) ([dC][dK][dR][dF][dV][dW][dR]G[dQ][dA][dL][dC]; cysteine pairing not given here)
binding to the L-SH3 domain (L-SH3 domain [5]): fails to bind to the L-SH3 domain

SRMSPLVPLRNS
isolates after four rounds of selection with the L-SH3 domain (L-SH3 domain [4]): one

B1: 96.2: D-vasopressin aptamer, ssDNA 96-mer (nucleic acid)
chain: TCTAACGTGAATGATAGACGGCGAATCCCCAATGCGAAGCAGTGGTTTTGCAGTCGAGTTGCTGTGTGCCGATGAGCGTTAACTTATTCGACCAAA
modifications: DNA, backbone not given here
notes: D-vasopressin aptamer, ssDNA 96-mer
binding to DVP [6]: binds DVP

B2: 96.4: D-vasopressin aptamer, ssDNA 96-mer (nucleic acid)
chain: TCTAACGTGAATGATAGACGTTACGTGTCTACACTATGTCGAGTTGCTGTGTGCCGATGAACGTGGGATTAGAGCGTGTTAACTTATTCGACCAAA
modifications: DNA, backbone not given here
notes: as for B1
binding to DVP [6]: binds DVP

B3: 69.1: D-vasopressin aptamer, deletion derivative of 96.4 (nucleic acid)
chain: TCTAACGTGAATGATAGACGTTACGTGTCTACACTATGTCGAGTTGCTGTGTGCCGATGAACGTGGGAT
modifications: chemistry not given here
elution from the DVP resin by L-vasopressin ([6]; DVP resin, L-vasopressin): not eluted from the DVP resin by L-vasopressin
binding to DVP [6]: appears to bind DVP better than does the parent sequence
